Consider one substance from publication PMC6385242, “Identification and characterization of a factor Va-binding site on human prothrombin fragment 2” (Scientific Reports, 2019).

For assay [1], the target named is Factor Va (UniProt P12259). Nature of the assay: SPR; Biacore T200; FVa amine-coupled on a CM5 chip (8000-9000 RU); prothrombin 0-10,000 nM injected for 60 s at 30 uL/min; HBS (0.02 M HEPES, 0.15 M NaCl, pH 7.4) with 5 mM CaCl2 and 0.01% Tween-80; kinetic 1:1 Langmuir model. (In SPR one partner is held on a chip, and binding of the other changes the refractive index at the surface.)
Sequence of Factor Va (P12259 29-737, chain 1 of 2): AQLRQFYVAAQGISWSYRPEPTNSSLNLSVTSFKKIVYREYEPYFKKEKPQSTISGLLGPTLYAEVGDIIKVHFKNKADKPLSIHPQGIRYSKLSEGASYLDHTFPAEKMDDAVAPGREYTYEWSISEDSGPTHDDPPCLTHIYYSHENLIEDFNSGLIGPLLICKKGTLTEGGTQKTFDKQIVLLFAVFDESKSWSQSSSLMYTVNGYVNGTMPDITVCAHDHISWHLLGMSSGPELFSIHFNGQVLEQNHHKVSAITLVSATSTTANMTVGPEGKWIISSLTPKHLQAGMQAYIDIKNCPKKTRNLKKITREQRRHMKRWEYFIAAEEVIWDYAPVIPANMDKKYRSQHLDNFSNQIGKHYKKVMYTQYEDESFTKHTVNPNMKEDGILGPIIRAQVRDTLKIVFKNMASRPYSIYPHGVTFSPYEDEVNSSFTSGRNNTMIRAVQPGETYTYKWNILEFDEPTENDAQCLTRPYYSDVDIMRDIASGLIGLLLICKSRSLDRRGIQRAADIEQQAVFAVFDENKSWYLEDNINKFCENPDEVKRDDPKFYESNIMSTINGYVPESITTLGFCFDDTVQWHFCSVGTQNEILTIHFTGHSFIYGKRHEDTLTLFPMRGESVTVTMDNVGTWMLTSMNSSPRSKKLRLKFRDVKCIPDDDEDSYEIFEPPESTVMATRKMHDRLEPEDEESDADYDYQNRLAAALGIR
Sequence of Factor Va (P12259 1574-2224, chain 2 of 2): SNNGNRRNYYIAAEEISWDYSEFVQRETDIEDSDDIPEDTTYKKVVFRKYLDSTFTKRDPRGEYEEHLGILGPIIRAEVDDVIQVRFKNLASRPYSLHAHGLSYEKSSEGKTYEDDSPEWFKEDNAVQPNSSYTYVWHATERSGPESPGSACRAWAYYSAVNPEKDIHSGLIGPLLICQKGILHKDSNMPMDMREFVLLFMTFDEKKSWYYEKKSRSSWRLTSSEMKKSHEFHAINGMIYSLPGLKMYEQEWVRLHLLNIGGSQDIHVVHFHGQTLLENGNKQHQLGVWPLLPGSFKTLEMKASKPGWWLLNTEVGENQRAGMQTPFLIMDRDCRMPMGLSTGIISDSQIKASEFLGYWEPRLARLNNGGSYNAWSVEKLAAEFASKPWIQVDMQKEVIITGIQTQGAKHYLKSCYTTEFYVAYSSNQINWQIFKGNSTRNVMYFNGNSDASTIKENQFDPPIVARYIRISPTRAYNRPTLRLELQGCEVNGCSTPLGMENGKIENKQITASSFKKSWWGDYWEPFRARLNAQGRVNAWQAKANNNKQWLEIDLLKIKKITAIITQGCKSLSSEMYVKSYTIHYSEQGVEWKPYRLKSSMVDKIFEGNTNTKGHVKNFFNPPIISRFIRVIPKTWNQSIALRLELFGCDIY

Assay [2] has as its target Factor Va (UniProt P12259).
Assay [3] has as its target Factor Va (UniProt P12259). This is another data set of the same source.

On to “PT6 prothrombin (Gln177Ala, Gln179Ala, Arg181Ala, Leu182Thr, Val184Thr, Thr185Ala) (natural protein)”, for which the equilibrium dissociation constant (Kd) with Factor Va [1] came out at 2600 nM. Besides, in the assay with Factor Va [2], the initial rate of thrombin generation, activation by FXa/FVa (5 nM FXa, 20 nM FVa, 5 mM CaCl2; DAPA) is 0.0053 s⁻¹ and the initial rate of thrombin generation, activation by full prothrombinase (20 pM FXa, 20 nM FVa, 50 uM PCPS, 5 mM CaCl2; DAPA) was 55.1 s⁻¹. In the assay with Factor Va [3], this substance showed a total thrombin generated on activation by FXa/FVa, relative to wild-type prothrombin (% of wild type) of 35 and a total thrombin generated on activation by full prothrombinase, decrease against wild-type prothrombin (% lower than wild type) of 42.

For orientation: Kd means a measure of binding affinity in units of concentration. Read a low Kd as a tighter complex.
